How the values were obtained:
Rv2466c = Rv2466c (UniProt O53193); test: EMSA; conditions: binding buffer and pH not stated ([…]
[1] = target: T1, Rv3852 (Mycobacterium tuberculosis H37Rv) (UniProt I6YHB0); test: EMSA; conditions: binding buffer and pH not stated ([…]
T1 sequence: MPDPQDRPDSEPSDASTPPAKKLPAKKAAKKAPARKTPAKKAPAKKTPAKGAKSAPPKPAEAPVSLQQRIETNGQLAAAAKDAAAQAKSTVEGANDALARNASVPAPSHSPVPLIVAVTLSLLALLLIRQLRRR

Chain of Rv2466c (O53193 whole entry): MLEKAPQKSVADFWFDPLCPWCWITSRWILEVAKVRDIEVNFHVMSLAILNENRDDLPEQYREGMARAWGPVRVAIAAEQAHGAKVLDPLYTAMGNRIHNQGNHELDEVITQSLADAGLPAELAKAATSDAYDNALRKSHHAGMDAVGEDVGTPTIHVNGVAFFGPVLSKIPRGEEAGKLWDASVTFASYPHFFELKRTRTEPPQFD

AATTCCGGCGCCTTCCCGGGCCGGAAGCCGGGCAGCCGCACCTGTTTGGCCAGCTCTTTGTAGGCCCGCTGGAAATCCGGCTCAAGCTCGGCGAATGGCACCTCCACGTTGATACGAACCCGGGTGGGGCTCAACTGCTCGACGGTGCTCTTCACGGGTGTGCTCCTTGGTAGTCGATAACGGCGGTCGGCTGGTCGGGGTGACAGGATTTGAACCTGCGGCCTTCCGCTCCCAAAGCGGATGCGCTACCAAGCTGCGCTACACCCCGCGCTGACCTCGCGATCCTACG / AATTCGTAGGATCGCGAGGTCAGCGCGGGGTGTAGCGCAGCTTGGTAGCGCATCCGCTTTGGGAGCGGAAGGCCGCAGGTTCAAATCCTGTCACCCCGACCAGCCGACCGCCGTTATCGACTACCAAGGAGCACACCCGTGAAGAGCACCGTCGAGCAGTTGAGCCCCACCCGGGTTCGTATCAACGTGGAGGTGCCATTCGCCGAGCTTGAGCCGGATTTCCAGCGGGCCTACAAAGAGCTGGCCAAACAGGTGCGGCTGCCCGGCTTCCGGCCCGGGAAGGCGCCGG [proU2]
binding (Rv2466c): no binding
binding [1]: binds

From publication PMC4433263, “Identification of Rv3852 as an Agrimophol-Binding Protein in Mycobacterium tuberculosis” (PLoS ONE, 2015)
